Reference: article doi:10.1101/404996 (bioRxiv, 2018)

Biological target: the molecule itself
Assay: other fluorescence titration

Protein	Kd
HIV-1 protease Flap+(I54) (L10I, G48V, V82A on the pWT backbone) (enzyme) not shown	< 0.25 µM
HIV-1 protease Flap+(I54A) (L10I, G48V, I54A, V82A on the pWT backbone) (enzyme) not shown	< 0.25 µM
HIV-1 protease Flap+(I54V) (L10I, G48V, I54V, V82A on the pWT backbone) (enzyme) not shown	< 0.25 µM
HIV-1 protease, pseudo wild type (pWT) (enzyme) not shown	< 0.25 µM
